How the values were obtained:
[1] = molecular target: anti-nAChR autoantibody mAb35 (an autoantibody to rat nAChR), purified from supernatant of hybridoma Mab35 (ATCC TIB-175); experiment: ELISA; mAb35 immobilised at 39.1 ng/mL, α1-Fc added, detected with HRP-labeled anti-human Fc antibody
[2] = molecular target: anti-nAChR autoantibody mAb35 (an autoantibody to rat nAChR), purified from supernatant of hybridoma Mab35 (ATCC TIB-175); experiment: ELISA; mAb35 immobilised at 9.8 ng/mL, α1-Fc added, detected with HRP-labeled anti-human Fc antibody
[3] = molecular target: anti-nAChR autoantibody mAb35 (an autoantibody to rat nAChR), purified from supernatant of hybridoma Mab35 (ATCC TIB-175); experiment: ELISA; mAb35 immobilised at 625 ng/mL, α1-Fc added, detected with HRP-labeled anti-human Fc antibody
[4] = molecular target: anti-nAChR autoantibody mAb35 (an autoantibody to rat nAChR), purified from supernatant of hybridoma Mab35 (ATCC TIB-175); experiment: ELISA; mAb35 immobilised at 10000 ng/mL, α1-Fc added, detected with HRP-labeled anti-human Fc antibody
[5] = molecular target: anti-nAChR autoantibody mAb35 (an autoantibody to rat nAChR), purified from supernatant of hybridoma Mab35 (ATCC TIB-175); experiment: ELISA; mAb35 immobilised at 156.3 ng/mL, α1-Fc added, detected with HRP-labeled anti-human Fc antibody
[6] = molecular target: anti-nAChR autoantibody mAb35 (an autoantibody to rat nAChR), purified from supernatant of hybridoma Mab35 (ATCC TIB-175); experiment: ELISA; mAb35 immobilised at 2500 ng/mL, α1-Fc added, detected with HRP-labeled anti-human Fc antibody
[7] = molecular target: anti-nAChR autoantibody presented on the cell surface of hybridoma Mab35 (ATCC TIB-175); experiment: cell-based or functional assay

In the case of “fusion protein α1-Fc, consisting of an N-terminal extracellular region of isoform 1 of human nAChRα1 subunit and a human antibody heavy chain Fc region (Fc fusion)”, the Absorbance A450 nm [1] is reported as 0.557 A450 nm, the Absorbance A450 nm [2] is reported as 0.505 A450 nm and the Absorbance A450 nm [3] is reported as 0.871 A450 nm. It also gave an Absorbance A450 nm [4] of 1.23 A450 nm, an Absorbance A450 nm [5] of 0.659 A450 nm and an Absorbance A450 nm [6] of 1.12 A450 nm. The cellular cytotoxicity (%) (ADCC activity) by NK 92 effector cells on Calcein-AM-loaded hybridoma Mab35 [7] was 50%.

— patent US20120123099A1
